Laboratory results reported in article PMC9814900.

Biological target: MDM2 25-109 (Homo sapiens), Q00987
Test: BLI competition
Settings: modification not given

Kd: 4.7 nM
Binder: AAFAAYWAALAAK [peptide 34]
